The results in this text go back to US20070117770, “Human ribosomal DNA (rDNA) and ribosomal RNA (rRNA) nucleic acids and uses thereof” (Cylene Pharmaceuticals, Inc., published 2007).

For data set [1], the target named is T1, Nucleolin (MBP fusion, lacking N-terminal acidic stretches domain) (Homo sapiens, UniProt P19338 P19338:284-710). The data set can be described thus: filter; Bmax 68%; 60 mM KCl, 1 mM MgCl2. The note with it: label: 32P; G4 parallel. Here is the method:
(§1) The assay also was conducted in a filter-binding format. In such forms of the assay, 0.2 nM of ³²P-labeled quadruplexes were incubated in 50 uL of the binding buffer (12.5 mM Tris-HCl, pH 7.6, 60 mM KCl, 1 mM MgCl2, 0.1 mM EDTA, 5% glycerol, 0.1 mg/mL BSA) for 10 min at 85 C and then for 10 min on ice and mixed with another 50 uL of binding buffer containing increasing amounts of recombinant protein Nucleolin. The protein-quadruplex mixtures were incubated for 30 min at ambient temperature and filtered through mixed cellulose ester membrane filters (Millipore) with gentle suction. The filters were washed twice with […] of binding buffer, dried and OptiPhase ‘SuperMix’ scintillation cocktail (Perkin Elmer) was added to the wells. Radioactivity was assayed with MicroBeta scintillation counter (Perkin Elmer). Binding curves were constructed and apparent Kd's and Bmax's for the complexes were calculated using the GraphPad Prizm software program (GraphPad Software). […]

Data set [2] concerns the target T1, Nucleolin (MBP fusion, lacking …). Briefly: filter; Bmax 60%; 60 mM KCl, 1 mM MgCl2. The note with it: label: 32P; G4 mixed. The procedure: as §1
The target is the same in data set [3]. The data set can be described thus: EMSA; complex disrupted by compounds A-1, B-1, C-6, C-7; 60 mM KCl, 1 mM MgCl2, room temperature. The note with it: label: 32P; G4. The procedure:
(§2) The following assays assessed effects of compounds on interactions between nucleolin and nucleic acid ligands capable of forming quadruplex (QP) and hairpin (HP) secondary structures. Nucleic acid ligands tested were a cMyc QP DNA having nucleotide sequence 5′-[…]-3′ (SEQ ID NO: 176) and a HP pre-rRNA region to which nucleolin binds, having the sequence 5′-[…]-3′ (SEQ ID NO: 177). In the assays, recombinant nucleolin (˜250 nM), which was fused to maltose binding protein and had the sequence under accession number NM_{—}005381 without the N-terminal acidic stretches domain, was incubated with each of the two ³²P-labeled nucleic acid ligands (10 or 250 nM). Nucleolin and the nucleic acid ligand were incubated in the presence or absence of a test compound of Formula A-1, B-1, C-6 or C-7 in an incubation buffer (12.5 mM Tris, pH 7.6, 60 mM KCl, 1 mM MgCl₂, 0.1 mM EDTA, 1 mM DTT, 5% glycerol, 0.1 mg/ml BSA) for 30 minutes at room temperature. Structures for A-1 and B-1 are shown above and structures for C-6 and C-7 are shown hereafter: The resulting complexes were separated on a 6% DNA retardation gel using 0.5× TBE with 20 mM KCl as a running buffer (i.e., electrophoresis mobility shift assay (EMSA)).
In general terms: A gel shift assay detects complexes by their altered migration in electrophoresis.

Data set [4] shares this target. The data set can be described thus: filter; Bmax 51%; 60 mM KCl, 1 mM MgCl2. The note with it: label: 32P; G4 parallel. The procedure:
as §1

The target is the same in data set [5]. Briefly: EMSA; random single-stranded control. The note with it: label: 32P, no quadruplex. The procedure: In the assays, recombinant nucleolin (˜250 nM), which was fused to maltose binding protein and had the sequence under accession number NM_{—}005381 without the N-terminal acidic stretches domain, was incubated with each of the two ³²P-labeled nucleic acid ligands (10 or 250 nM). Nucleolin and the nucleic acid ligand were incubated in the presence or absence of a test compound of Formula A-1, B-1, C-6 or C-7 in an incubation buffer (12.5 mM Tris, pH 7.6, 60 mM KCl, 1 mM MgCl₂, 0.1 mM EDTA, 1 mM DTT, 5% glycerol, 0.1 mg/ml BSA) for 30 minutes at room temperature. Structures for A-1 and B-1 are shown above and structures for C-6 and C-7 are shown hereafter: The resulting complexes were separated on a 6% DNA retardation gel using 0.5× TBE with 20 mM KCl as a running buffer (i.e., electrophoresis mobility shift assay (EMSA)).
The assay also was conducted using nucleic acid ligands derived from human ribosomal DNA. Sequences of these nucleic acids are shown in the preceding example. It was determined from these assays that compound A-1, but not Actinomycin D, interfered with nucleolin/nucleic acid ligand interactions. […] A “+” represents the weakest nucleolin affinity and least interference by compound A-1 and a “++++” represents the strongest nucleolin affinity and greatest interference by compound A-1.

The target is the same in data set [6]. The data set can be described thus: EMSA. Conditions: label: 32P; G4 antiparallel. Here is the method:
as §2, with “Structures for A-1 and B-1 are shown above and structures for C-6 and C-7 are shown hereafter: The resulting complexes were separated on a 6% DNA retardation gel using 0.5× TBE with 20 mM KCl as a running buffer (i.e., electrophoresis mobility shift assay (EMSA)).” left out
The assay also was conducted using nucleic acid ligands derived from human ribosomal DNA. […] It was determined from these assays that compound A-1, but not Actinomycin D, interfered with nucleolin/nucleic acid ligand interactions. […]

For data set [7] the target is unchanged. The data set can be described thus: filter; Bmax 13%; 60 mM KCl, 1 mM MgCl2. Conditions: label: 32P; G4 antiparallel. The procedure: as §1
For data set [8] the target is unchanged. Briefly: filter; Bmax 100%; 62-mer printed here, Example 6 table prints a shorter sequence under the same name. The note with it: label: 32P; G4 mixed. The procedure: as §1

T1 sequence (P19338 284-710, one chain of several): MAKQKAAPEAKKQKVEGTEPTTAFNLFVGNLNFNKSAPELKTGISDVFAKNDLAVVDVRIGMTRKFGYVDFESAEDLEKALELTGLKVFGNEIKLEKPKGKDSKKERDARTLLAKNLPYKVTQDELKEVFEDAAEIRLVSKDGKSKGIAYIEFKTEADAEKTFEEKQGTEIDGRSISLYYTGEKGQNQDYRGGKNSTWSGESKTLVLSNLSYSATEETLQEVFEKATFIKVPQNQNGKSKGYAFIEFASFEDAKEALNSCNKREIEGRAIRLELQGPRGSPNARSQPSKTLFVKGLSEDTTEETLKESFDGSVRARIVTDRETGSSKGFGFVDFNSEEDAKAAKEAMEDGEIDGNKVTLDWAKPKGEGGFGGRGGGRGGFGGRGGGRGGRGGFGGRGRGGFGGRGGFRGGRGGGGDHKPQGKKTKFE

Regarding GGGTGGCGGGGGGGAGAGGGGGG (structured_DNA) [6960NT], in data set [1], the Kd is 0.5 nM.

Molecule GGGTCCGGAAGGGGAAGGGTGCCGGCGGGGAGAGAGGGTCGGGGG (structured_DNA) [7253NT] registered a Kd in data set [2] of 0.4 nM. Turning to TGGGGAGGGTGGGGAGGGTGGGGAAGG (structured_DNA) [cMyc QP DNA], the binding result in data set [3] is listed as “binds”. Turning to GGGCGGGGGGGGCGGGGGG (structured_DNA) [6534NT], binding in data set [4] was put at a Kd of 1.1 nM. For the molecule GTCGTAACGTCGATCAGTTTACGACAT (ssDNA) [RND27], in data set [5], the binding result is “no binding”. Regarding GGGCTGGGTCGGTCGGGCTGGGG (structured_DNA) [10816NT], the binding result in data set [6] was “no binding”. As to GGGAGGGCGCGCGGGTCGGGG (structured_DNA) [8749NT], binding in data set [7] was characterised by a dissociation constant (Kd) of 1.9 nM.

B1: 8511NT (structured_DNA)
DNA: GGGGGCGGGCTCCGGCGGGTGCGGGGGTGGGCGGGCGGGGCCGGGGGTGGGGTCGGCGGGGG
Regarding B1, the Kd in data set [8] came to 0.6 nM. In other words, the sub-nanomolar range.

A word on the Kd: it is a measure of binding affinity in units of concentration.
